Assays:
VcNorM = VcNorM (UniProt Q9KRU4); experiment: SEC
[1] = molecular target: Lyso-Nb_4 P41A (alpaca scaffold, camel CDRs); experiment: SPR
[2] = molecular target: Lyso-Nb_4 V89A (alpaca scaffold, camel CDRs); experiment: SPR
[3] = molecular target: Lyso-Nb_4 L11A (alpaca scaffold, camel CDRs); experiment: SPR
TC-Nb4 (alpaca) = experiment: SPR
[4] = molecular target: Lyso-Nb_4 K43A (alpaca scaffold, camel CDRs); experiment: SPR
[5] = molecular target: Lyso-Nb_4 W103A (alpaca scaffold, camel CDRs); experiment: SPR
[6] = molecular target: Lyso-Nb_4 S112A (alpaca scaffold, camel CDRs); experiment: SPR
[7] = molecular target: Lyso-Nb_4 Y91A (alpaca scaffold, camel CDRs); experiment: SPR
[8] = molecular target: Lyso-Nb_4 R45A (alpaca scaffold, camel CDRs); experiment: SPR
lysozyme = lysozyme (Gallus gallus, UniProt P00698); experiment: SEC

B1: NorM-Nb17_4 (VHH)
VHH: QRQLVESGGGLVQPGGSLRLSCAASGIIFKINDMGWFRQAPGKEREGVAGITSGGRTNYADSVKGRFIISRDNVKNTVYLQMNSLEPEDTAVYYCKSDGLISYAASQLSTYWGKGTPVTVSS
- binding result (VcNorM): binds

B2: NabFab (Fab, V domains shown)
VH: EVQLVESGGGLVQPGGSLRLSCAASGFNFSYYSIHWVRQAPGKGLEWVAYISSSSSYTSYADSVKGRFTISADTSKNTAYLQMNSLRAEDTAVYYCARGYQYWQYHASWYWNGGLDYWGQGTLVTVSS
VL: DIQMTQSPSSLSASVGDRVTITCRASQSVSSAVAWYQQKPGKAPKLLIYSASSLYSGVPSRFSGSRSGTDFTLTISSLQPEDFATYYCQQSSSSLITFGQGTKVEIK
- fold reduction of affinity against Lyso-Nb 4 [1]: 400 fold
- fold reduction of affinity against Lyso-Nb 4 [2]: 600 fold
- fold reduction of affinity against Lyso-Nb 4 [3]: < 5 fold
- Kd (TC-Nb4 (alpaca)): 860 pM
- fold reduction of affinity against Lyso-Nb 4 [4]: < 5 fold
- fold reduction of affinity against Lyso-Nb 4 [5]: < 5 fold
- fold reduction of affinity against Lyso-Nb 4 [6]: < 5 fold
- fold higher KD against Lyso-Nb 4 [7]: > 25 fold
- fold higher KD against Lyso-Nb 4 [8]: > 40 fold

B3: Lyso-Nb_4 (VHH)
VHH: QRQLVESGGGLVQPGGSLRLSCAASGSTDSIEYMTWFRQAPGKEREGVAALYTHTGNTYYADSVKGRFIISRDKAKNMVYLQMNSLEPEDTAVYYCGATRKYVPVRFALDQSSYDYWGKGTPVTVSS
- binding result (lysozyme): binds

Reference: paper doi:10.1101/2021.08.20.457137 (bioRxiv, 2021)
